Assay results taken from patent US20150140002A1, “USE OF A PCSK9 INHIBITOR TO TREAT […]” (Sanofi, priority 2013, published 2015).

Experiments:
[1] = Example 2: serum mAb316P concentration (ELISA); assay type: in vivo, human
Procedure: If needed, total and free PCSK9 concentrations could be measured from the same PK sample.
To collect information on the absorption phase, an optional PK sample was collected at 5 days (±2) after the week 22 IMP injection or at 5 days (±2) after any subsequent IMP injection while the subject was on treatment.
The lower limit of quantification (LLQ) for this assay is 0.078 μg/mL.

[2] = test system: patients with genotype-confirmed hoFH; conditions: ezetimibe 10 mg/day added to maximal dose of statins; cited from earlier work

Molecule | serum MAb316P Ctrough, mean (SD) ([1]; Week 4, non-uptitrated (n = 32)) | serum MAb316P Ctrough, mean (SD) ([1]; Week 4, uptitrated at Week 12 (n = 14)) | serum MAb316P Ctrough, mean (SD) ([1]; Week 12, non-uptitrated (n = 32)) | serum MAb316P Ctrough, mean (SD) ([1]; Week 12, uptitrated at Week 12 (n = 14)) | serum MAb316P Ctrough, mean (SD) ([1]; Week 24, non-uptitrated, 75 mg Q2W (n = 32)) | serum MAb316P Ctrough, mean (SD) ([1]; Week 24, uptitrated to 150 mg Q2W at Week 12 (n = 14)) | change of serum mAb316P levels after uptitration ([1]; patients uptitrated at Week 12 (75 to 150 mg Q2W)) | total reduction of LDL-C levels [2]
mAb316P: human anti-PCSK9 antibody; heavy chain SEQ ID NO:5, light chain SEQ ID NO:9; HCVR SEQ ID NO:1, LCVR SEQ ID NO:6 | 5784.7 (2456.4) ng/mL | 4533.9 (3996.5) ng/mL | 5979.0 (2780.3) ng/mL | 5702.9 (4816.4) ng/mL | 6991.4 (4418.4) ng/mL | 14772.2 (10201.7) ng/mL | approximately doubled | 
O=C1[C@H](CC[C@H](O)c2ccc(F)cc2)[C@@H](c2ccc(O)cc2)N1c1ccc(F)cc1 [ezetimibe, reference compound] |  |  |  |  |  |  |  | 27%
